Measured values from paper PMC9523886.
Like-named read-outs stand apart in the source and are kept apart here.

Legend:
Assay in all cases: FCCS
[1] = biological target: GFP-DscIA (Discoidin I, paralog A, fused with GFP) (D. discoideum)
[2] = biological target: GFP-DscIA (Discoidin I, paralog A, fused with GFP) (D. discoideum); remark: listed apart in the source
[3] = biological target: GFP-DscIA (Discoidin I, paralog A, fused with GFP) (D. discoideum); remark: listed apart in the source

Kd [1]: 2800 nM | Kd [2]: 1900 nM | Kd [3]: 2900 nM
Substance: mCh-MyoII (mCherry-tagged Myosin II) (from UniProt P08799 1-2116) (natural protein)
